Earlier results on one substance are cited in publication PMC7616283.

For this series, the target named is CCR8 (Homo sapiens) (UniProt P51685).
Chain of CCR8 (Homo sapiens) (P51685 whole entry): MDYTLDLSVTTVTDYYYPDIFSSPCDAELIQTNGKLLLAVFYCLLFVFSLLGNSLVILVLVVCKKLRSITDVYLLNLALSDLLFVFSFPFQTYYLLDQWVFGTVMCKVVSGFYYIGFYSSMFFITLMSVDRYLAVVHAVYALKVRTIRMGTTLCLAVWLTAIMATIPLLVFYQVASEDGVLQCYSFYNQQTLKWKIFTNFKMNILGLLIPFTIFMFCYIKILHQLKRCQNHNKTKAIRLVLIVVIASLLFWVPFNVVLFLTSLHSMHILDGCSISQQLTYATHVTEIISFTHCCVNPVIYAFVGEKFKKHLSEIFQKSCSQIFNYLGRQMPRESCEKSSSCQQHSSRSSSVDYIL

Chain of CCL18 (P55774 24-89): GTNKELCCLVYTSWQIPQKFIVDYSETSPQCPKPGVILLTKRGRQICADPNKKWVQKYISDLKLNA

What is called Kd is the free concentration of one partner at which half of the binding sites on the other are occupied at equilibrium, for simple one-to-one binding. With CCL18 (from UniProt P55774), the Kd was 1.9 nM.
